In patent US7459156 (University of California, dated 2008):

What was measured:
[1] = molecular target: T1, rat trkA receptor (full length, 140 kD) (rat, UniProt P35739 33-799); test: equilibrium ^125I-NGF binding to PC12 cells, Scatchard/LIGAND; 500 ug/ml anti-LNGFR IgG present; remaining high affinity site
T1 construct: whole, on cells; also called p140trk; native trkA receptor protein
Description: (§1) Binding Assays. […] Nonspecific binding was determined by addition of […] unlabeled NGF, and ranged from 2-25% of specific binding. Determinations were made in triplicate. The equilibrium binding data from two experiments were combined for the Scatchard analysis (Scatchard, G., *Analys of NY Acad. Sciences* 5:660-672 (1949)), which was performed with the program LIGAND (Munson, P. J. and Rodbard, D., *Anal. Biochem.*, 107, 220-239 (1980)). The Scatchard data are plotted as fmoles bound per 10^5 cells (equivalent to a volume of 2×10^-4 liters).
(§2) To analyze the characteristics of the NGF binding sites remaining in the presence of the anti-LNGFR or -trkA antibodies, equilibrium binding assays were performed from 3.5 to 4000 pM NGF. The results are plotted by the Scatchard method in FIG. 2. As is now well known, PC12 cells have NGF binding sites with differing kinetic characteristics, leading to low and high affinity binding sites (Schechter and Bothwell, 1981). This is observed in the biphasic graph of NGF binding determined in the presence of control IgG (FIG. 2, open squares; the binding parameters are presented in Table 1).
(§3) FIG. 2 is an analysis of anti-LNGFR- and RtrkA.EX-resistant NGF binding sites. […] Nonspecific binding was determined as in FIG. 1A; values were determined in triplicate.

[2] = molecular target: T2, low affinity nerve growth factor receptor (LNGFR) on PC12 cells (rat, UniProt P07174 30-425); test: equilibrium ^125I-NGF binding to PC12 cells, Scatchard/LIGAND; control IgG present; low affinity site
T2 construct: whole, on cells
T2 sequence (looked up): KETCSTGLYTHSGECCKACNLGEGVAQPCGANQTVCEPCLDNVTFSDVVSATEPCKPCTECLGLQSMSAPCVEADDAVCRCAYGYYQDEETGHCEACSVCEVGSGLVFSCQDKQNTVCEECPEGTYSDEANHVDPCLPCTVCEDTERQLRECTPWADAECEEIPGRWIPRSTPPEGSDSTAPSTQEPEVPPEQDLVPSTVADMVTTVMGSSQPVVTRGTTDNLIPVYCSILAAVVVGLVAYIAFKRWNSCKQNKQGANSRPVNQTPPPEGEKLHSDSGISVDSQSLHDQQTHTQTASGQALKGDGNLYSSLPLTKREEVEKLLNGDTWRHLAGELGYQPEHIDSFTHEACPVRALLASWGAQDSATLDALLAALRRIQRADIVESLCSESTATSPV
Description: as §1, §2, §3

[3] = molecular target: T1, rat trkA receptor (full length, 140 kD); test: equilibrium ^125I-NGF binding to PC12 cells, Scatchard/LIGAND; control IgG present; high affinity site
Description: as §1, §2, §3

[4] = molecular target: T2, low affinity nerve growth factor …; test: equilibrium ^125I-NGF binding to PC12 cells, Scatchard/LIGAND; 500 ug/ml RtrkA.EX IgG present; remaining low affinity site
Description: as §1, §2, §3

T1 sequence (P35739 33-799): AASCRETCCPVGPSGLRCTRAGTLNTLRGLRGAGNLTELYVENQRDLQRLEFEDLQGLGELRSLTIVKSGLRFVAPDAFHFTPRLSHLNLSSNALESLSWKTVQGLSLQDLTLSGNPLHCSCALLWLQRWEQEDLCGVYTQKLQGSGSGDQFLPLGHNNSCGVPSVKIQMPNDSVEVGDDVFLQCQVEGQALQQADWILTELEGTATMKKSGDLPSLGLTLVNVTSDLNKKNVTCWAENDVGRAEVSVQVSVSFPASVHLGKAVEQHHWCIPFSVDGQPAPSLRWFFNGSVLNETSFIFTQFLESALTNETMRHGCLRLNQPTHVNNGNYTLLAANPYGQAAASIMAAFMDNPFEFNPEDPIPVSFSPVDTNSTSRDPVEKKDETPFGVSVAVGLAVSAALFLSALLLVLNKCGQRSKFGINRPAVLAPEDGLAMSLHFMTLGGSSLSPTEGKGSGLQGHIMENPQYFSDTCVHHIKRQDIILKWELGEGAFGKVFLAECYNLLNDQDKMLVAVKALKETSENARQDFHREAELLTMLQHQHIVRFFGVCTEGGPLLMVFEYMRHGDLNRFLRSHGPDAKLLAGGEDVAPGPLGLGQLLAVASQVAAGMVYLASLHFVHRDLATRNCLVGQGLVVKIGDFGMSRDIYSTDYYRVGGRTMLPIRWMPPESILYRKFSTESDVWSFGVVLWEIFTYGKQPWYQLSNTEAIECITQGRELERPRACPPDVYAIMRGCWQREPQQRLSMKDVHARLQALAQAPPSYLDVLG

B1: nerve growth factor (NGF) (ligand, mouse, UniProt P01139 122-241, looked up)
chain: SSTHPVFHMGEFSVCDSVSVWVGDKTTATDIKGKEVTVLAEVNINNSVFRQYFFETKCRASNPVESGCRGIDSKHWNSYCTTTHTFVKALTTDEKQAAWRFIRIDTACVCVLSRKATRRG
modifications: 125I label on the NGF used in the binding assays
notes: mature; The species is stated only for the unlabelled NGF; the labelled NGF was bought
Work on B1 yielded a Kd [1] of 0.092 nM, a Kd [2] of 1.8 nM and a Kd [3] of 0.038 nM. For the same binder, the Kd [4] was 1.1 nM.
